Positions count from the first letter of the chain named. Names may count otherwise.

From patent US20260242455A1 (SCHOLAR ROCK, published 2026) come the findings set out here.

Sequences and labels used below:
B1: Ab4 (germlined Ab3), IgG4 (S228P)/lambda (antibody, V domains shown)
VH: QVQLVESGGGVVQPGRSLRLSCAASGFAFSSYGMHWVRQAPGKGLEWVAVISYDGSIKYYADSVKGRFTISRDNSKNTLYLQMNSLRAEDTAVYYCARDLLVRFLEWSHKYGMDVWGQGTTVTVSS
VL: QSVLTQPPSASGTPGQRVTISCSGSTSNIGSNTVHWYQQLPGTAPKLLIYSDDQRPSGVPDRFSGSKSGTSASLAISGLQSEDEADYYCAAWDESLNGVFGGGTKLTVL
notes: Human IgG4/lambda
B2: Ab6 (germlined Ab5), IgG4 (S228P)/lambda (antibody, V domains shown)
VH: B1 VH with S56N, I57N
VL: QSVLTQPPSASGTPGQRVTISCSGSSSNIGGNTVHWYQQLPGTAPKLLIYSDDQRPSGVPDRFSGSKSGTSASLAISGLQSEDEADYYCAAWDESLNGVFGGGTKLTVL
notes: Human IgG4/lambda
B3: Ab10 (antibody, V domains shown)
VH: EVQLVQSGGGVVQSGRSLRLSCVASGFSFSNYGMHWVRQAPGKGLEWLAFIWYDGSNKWYADSVKGRFTISRDNSKNALYLQMNSLRAEDTAVYYCARDRYSSSWGGGFDYWGQGTVLTVSS
VL: NFMLTQPHSVSESPGRTVTIPCSGRGGSIASDSVQWYQQRPGSAPTTIIYEDNQRPSGVPDRFSGSVDSSSNSASLTISGLRTEDEADYYCQSYDASSLWVFGGKTKLTVLG
notes: also called anti-pro/latent GDF8 antibody, Ab10
B4: Ab7 (antibody, V domains shown)
VH: QVQLQQSGAEVKKPGASVKVSCKASGYTFTSYYMHWVRQAPGQGLEWMGIINPSGGSTSYAQKFQGRVTMTRDTSTSTVYMELSSLRSEDTAVYYCARESLIRFLEDPQQGGMDVWGQGTTVTVSS
VL: QSALTQPASVSGSPGQSLTISCTGTSSDIGGYNYVSWYQQHPGKAPKLIIYDVTDRPSGVSGRFSGSKSGNTASLTISGLQTEDEAEYFCNSWTRSNNYIFGGGTKLTVLG
B5: Ab11 (antibody, V domains shown)
VH: QLQLQQSGGGLVKPGGSLRLSCAASGFTFSSYSMNWVRQAPGKGLEWVSSISSSSSYIYYADSVKGRFTISRDNAKNSLYLQMNSLRAEDTAVYYCVRDRHSLGDFDYWGQGTLVTVSS
VL: SSELTQPSVSVSPGQTATITCSGDKLGDKYASWYQQKPGQSPVLVIYQDTKRPSGIPARFSGSNSGNTATLTISGTQAMDEAAYYCQAWDSTTVVFGGGTKLTVLG
notes: Fully human antibody
B6: Ab8 (antibody, V domains shown)
VH: QIQLVQSGAEVKKPGASVKVSCKASGYTFTSYGISWVRQAPGQGLEWMGWISAYNGNTNYAQKLQGRVTMTTDTSTSTAYMELSSLRSEDTAVYYCARVGFYDYVWGSYPYDAFDIWGQGTMVTVSS
VL: EIVMTQSPGTLSLSPGERATLSCRASQSVSSNYLAWYQQKPGQAPRLLIYDASNRATGIPARFSGSGSGTDFTLTISSLEPEDFALYYCQQYGTSPLTFGGGTKLEIKR
B7: Ab1 (parental), IgG4 (S228P)/lambda (antibody, V domains shown)
VH: B1 VH with V2I, E6Q, A28T, I57N, K110Y
VL: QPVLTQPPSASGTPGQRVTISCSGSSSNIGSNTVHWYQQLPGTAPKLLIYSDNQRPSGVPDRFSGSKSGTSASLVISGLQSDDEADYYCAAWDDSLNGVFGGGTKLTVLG
notes: Fully human IgG4 (S228P), lambda; also called parental Ab1 IgG4; copies: 2 + 2
B8: Ab9 (antibody, V domains shown)
VH: QVQLVQSGAEVKKPGSSVKVSCKASGGTFSSYAISWVRQAPGQGLEWMGGIIPIFGTANYAQKFQGRVTITADESTSTAYMELSSLRSEDTAVYYCANHGLMDDSSGYYLSNAFDIWGQGTMVTVSS
VL: not shown
B9: Ab12 (antibody, V domains shown)
VH: QVQLVQSGGGLIQPGGSLRLSCAASGFTVSSYSMNWVRQAPGKGLEWVSYISSSGSTIYYADSVKGRFTISRDNAKNSLYLQMNSLRAEDTALYYCAKVGTAAAGDAFDIWGQGTMVTVSS
VL: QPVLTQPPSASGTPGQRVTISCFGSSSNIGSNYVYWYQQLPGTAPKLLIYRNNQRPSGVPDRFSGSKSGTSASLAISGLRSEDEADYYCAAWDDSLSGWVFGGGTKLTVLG
notes: Fully human antibody
B10: Ab13 (antibody, V domains shown)
VH: EVQLVQSGGGLVQPGRSLRLSCAASGFTFDDYAMHWVRQAPGKGLEWVSGISWNSGSIGYADSVKGRFTISRDNAKNSLYLQMNSLRAEDTALYYCAKDTSNGGYSSSSFDYWGQGTLVTVSS
VL: QSALTQPASVSGSPGQSITISCTGTSSDVGGYNYVSWYQQHPGTAPKLMIYDVSYRPSGVSNRFSGSKSGNTASLTISGLQAEDEADYYCSSYTSSSTLVFGTGTKVTVLG
notes: Fully human antibody
B11: Ab15 (antibody, V domains shown)
VH: EVQLVQSGGGLVQPGRSLRLSCAASGFTFDDYAMHWVRQAPGKGLEWVSGISWNSGSIGYADSVKGRFTISRDNSKNTLYLQMNSLRAEDTAVYYCAKVDGLEYSSGHNFDYWGQGTLVTVSS
VL: QSALTQPPSVSGSPGQSVTISCTGSSSDVGYYDHVSWYQHHPGRAPKVIIYDVTKRPSGVPDRFSGSKSGNTASLTISGLQAEDEADYYCSSYAGSYTWVFGGGTELTVLG
notes: Fully human antibody
B12: Ab14 (antibody, V domains shown)
VH: EVQLLESRAEVKKPGESLKISCKGSGYSFTSYWIGWVRQMPGKGPEWMGIIYPGDSDTRYSPSFQGQVTISADKSISTAYLQWSSLKASDTAMYYCARLVYGGYDEPGYYFDYWGQGTLVTVSS
VL: not shown
notes: Fully human antibody

murine latent GDF11, sequence (Q9Z1W4 21-296 limits assumed, chain 1 of 2): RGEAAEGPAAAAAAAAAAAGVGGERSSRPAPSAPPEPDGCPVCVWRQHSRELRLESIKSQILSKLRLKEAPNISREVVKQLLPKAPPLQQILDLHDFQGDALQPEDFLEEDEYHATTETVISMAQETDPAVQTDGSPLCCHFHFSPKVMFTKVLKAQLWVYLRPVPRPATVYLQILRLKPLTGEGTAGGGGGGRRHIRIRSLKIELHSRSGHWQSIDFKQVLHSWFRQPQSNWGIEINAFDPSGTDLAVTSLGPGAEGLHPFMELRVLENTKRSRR
murine latent GDF11, sequence (Q9Z1W4 297-405 limits assumed, chain 2 of 2): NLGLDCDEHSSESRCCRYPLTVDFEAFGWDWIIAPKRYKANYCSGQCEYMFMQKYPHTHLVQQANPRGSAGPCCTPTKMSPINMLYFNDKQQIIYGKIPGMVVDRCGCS
proGDF11, sequence (O95390 25-407 limits assumed): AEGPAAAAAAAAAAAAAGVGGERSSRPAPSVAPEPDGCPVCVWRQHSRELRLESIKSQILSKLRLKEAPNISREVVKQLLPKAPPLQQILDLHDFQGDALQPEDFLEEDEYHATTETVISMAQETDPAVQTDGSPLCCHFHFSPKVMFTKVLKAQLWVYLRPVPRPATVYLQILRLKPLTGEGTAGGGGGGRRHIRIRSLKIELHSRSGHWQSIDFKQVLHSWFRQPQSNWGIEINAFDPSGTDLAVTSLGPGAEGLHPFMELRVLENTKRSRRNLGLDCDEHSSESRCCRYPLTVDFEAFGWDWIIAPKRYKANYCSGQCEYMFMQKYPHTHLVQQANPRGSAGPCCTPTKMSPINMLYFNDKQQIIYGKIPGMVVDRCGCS

One assay concerns the target T1, murine pro-myostatin (mouse, UniProt O08689 25-376). The experiment in a line: cell-based or functional assay.
Take B1: the “Activity Assay - 293T cells EC50” value is 447 nM.

For the next assay, the target named is T1, murine pro-myostatin. Nature of the assay: cell-based or functional assay. The source holds these as a separate data set.
As to B2, the “Activity Assay - 293T cells EC50” value amounted to 307 nM.

For the next assay, the target named is T1, murine pro-myostatin. Nature of the assay: ForteBio Octet BLI kinetics.
In general, Kd refers to the concentration at which binding is half-saturated. A word on the koff: it is a measure of how fast the partners let go of each other. Read a low koff as a long-lived complex. By kon is commonly meant the rate constant with which the complex forms. Regarding B2, the dissociation constant Kd is 0.954 nM, the koff worked out at 0.000281 s⁻¹ and the kon came out at 294000 M⁻¹ s⁻¹.

Another assay deals with T1, murine pro-myostatin. The experiment in a line: cell-based or functional assay. This is another data set of the same source.
Regarding B3, the “EC50 Activation Assay” value was 373 nM.

With B4, the “EC50 Activation Assay” value worked out at 555 nM.

On to B5, for which the “EC50 Activation Assay” value is 1380 nM.

On to B6, for which the “EC50 Activation Assay” value amounted to 1600 nM.

For the next assay, the target named is T1, murine pro-myostatin. Nature of the assay: cell-based or functional assay. This is another data set of the same source.
Take B7: the “Activity Assay - 293T cells EC50” value turned out to be 839 nM.

The next assay has as its target T1, murine pro-myostatin. The experiment in a line: cell-based or functional assay. The source holds these as a separate data set.
Regarding B8, the “Murine proGDF8 IC50, Reporter assay” value was determined as 19900 nM.

In the case of B4, the “Murine proGDF8 IC50, Reporter assay” value was determined as 1680 nM.

As to B6, the “Murine proGDF8 IC50, Reporter assay” value is 139000 nM.

The next assay concerns the target human pro-myostatin (human, UniProt O14793 24-375). Nature of the assay: cell-based or functional assay.
Consider B8, for which the “Human proGDF8 IC50, Reporter assay” value came to 12200 nM.

For the molecule B3, the “Human proGDF8 IC50, Reporter assay” value is 772 nM.

Turning to B4, the “Human proGDF8 IC50, Reporter assay” value amounted to 983 nM.

On to B6, for which the “Human proGDF8 IC50, Reporter assay” value was found to be 6040 nM.

The target in the next assay is T2, pro-myostatin (proGDF8), species not stated in the experiment (UniProt O14793 24-375, limits assumed).
T2 construct: also called pro/latent-myostatin
The experiment in a line: ForteBio Octet, biotinylated antigen on streptavidin sensor; IgG1. (Biolayer interferometry detects binding as a change in optical thickness at a sensor tip.)
For the molecule B8, the equilibrium dissociation constant (Kd) was found to be 22000 nM.

The molecule B3 returned a Kd of 300 nM.

B4 gave an equilibrium dissociation constant (Kd) of 28000 nM.

For B6, the affinity, expressed as Kd, was 500 nM.

A further assay deals with T1, murine pro-myostatin. Nature of the assay: ForteBio Octet BLI kinetics. This is another data set of the same source.
Molecule B1 registered a Kd of 1.08 nM, a dissociation rate constant (koff) of 0.000272 s⁻¹ and an on-rate constant (kon) of 253000 M⁻¹ s⁻¹.

Another assay deals with T1, murine pro-myostatin. The experiment in a line: ForteBio Octet BLI kinetics. This is another data set of the same source.
As to B7, the affinity, expressed as Kd, was 11 nM; the koff turned out to be 0.00262 s⁻¹; the on-rate (kon) was 237000 M⁻¹ s⁻¹.

The next assay has as its target T1, murine pro-myostatin. The experiment in a line: ForteBio BLI.
The molecule B8 displayed a Kd of 8.5 nM.

Molecule B3 gave a Kd of 3.7 nM.

In turn, B9 had a dissociation constant (Kd) of 3.9 nM.

In the case of B4, the equilibrium dissociation constant (Kd) came to 32.9 nM.

In turn, B10 yielded a Kd of 4.3 nM.

The molecule B11 gave an equilibrium dissociation constant (Kd) of 4.7 nM.

Regarding B5, the affinity, expressed as Kd, was 1.6 nM.

B6 registered a Kd of 1.4 nM.

Another assay concerns the target murine latent GDF11 (murine, UniProt Q9Z1W4 21-296; Q9Z1W4 297-405, limits assumed). Nature of the assay: ForteBio BLI.
Take B8: the binding result was “no binding (tested: 200 nM)”.

Turning to B3, the binding result is listed as “no binding (tested: 200 nM)”.

Consider B9, for which the binding result is “no binding (tested: 200 nM)”.

Turning to B4, the binding result is listed as “no binding (tested: 200 nM)”.

For B12, the binding result is “no binding (tested: 200 nM)”.

With B10, the binding result was “no binding (tested: 200 nM)”.

Consider B11, for which the binding result is “no binding (tested: 200 nM)”.

Consider B5, for which the binding result is given as “no binding (tested: 200 nM)”.

Turning to B6, the binding result was “no binding (tested: 200 nM)”.

In the next assay the target is T3, mature myostatin growth factor (UniProt O14793 267-375, limits assumed).
T3 construct: mature; Amine-coupled to the sensor tips; also called Mature GDF8
Nature of the assay: ForteBio BLI.
Regarding B8, the binding result is given as “no binding (tested: 333 nM)”.

With B3, the binding result is given as “no binding (tested: 333 nM)”.

On to B9, for which the binding result was “no binding (tested: 333 nM)”.

Take B4: the binding result is listed as “no binding (tested: 333 nM)”.

For B12, binding was characterised by a dissociation constant (Kd) of 2.1 nM.

For the molecule B10, the binding result was “no binding (tested: 333 nM)”.

B11 had a Kd of 9.5 nM.

For the molecule B5, the binding result is reported as “no binding (tested: 333 nM)”.

B6: the binding result was “no binding (tested: 333 nM)”.

The target in another assay is murine pro + latent GDF11 (murine, UniProt Q9Z1W4 21-405, limits assumed). The experiment in a line: ForteBio BLI.
murine pro + latent GDF11, sequence (Q9Z1W4 21-405 limits assumed): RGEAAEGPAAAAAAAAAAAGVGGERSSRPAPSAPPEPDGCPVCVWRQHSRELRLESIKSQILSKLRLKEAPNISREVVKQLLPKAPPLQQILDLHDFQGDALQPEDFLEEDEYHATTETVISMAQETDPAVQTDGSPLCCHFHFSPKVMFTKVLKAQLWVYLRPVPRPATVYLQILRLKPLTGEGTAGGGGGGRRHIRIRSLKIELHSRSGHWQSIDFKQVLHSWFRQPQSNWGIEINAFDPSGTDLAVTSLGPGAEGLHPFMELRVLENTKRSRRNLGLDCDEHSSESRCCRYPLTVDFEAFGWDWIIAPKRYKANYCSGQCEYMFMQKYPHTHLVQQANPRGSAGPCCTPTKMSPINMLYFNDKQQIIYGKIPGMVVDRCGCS
Regarding B8, the binding result is “no binding (tested: 200 nM)”.

For B3, the binding result is “no binding (tested: 200 nM)”.

B9: the binding result is “no binding (tested: 200 nM)”.

In the case of B4, the binding result was “no binding (tested: 200 nM)”.

Turning to B12, the binding result is “no binding (tested: 200 nM)”.

For the molecule B10, the binding result is given as “no binding (tested: 200 nM)”.

As to B11, the binding result is on record as “no binding (tested: 200 nM)”.

Turning to B5, the binding result is given as “no binding (tested: 200 nM)”.

Take B6: the binding result is “no binding (tested: 200 nM)”.

The target of a further assay is T4, murine latent myostatin (mouse, UniProt O08689 25-267; O08689 268-376, Non-covalent complex of prodomain and growth factor; disulfide-linked homodimer, one copy of each chain is given.).
T4 construct: recombinant in BLI, endogenous in serum immunoprecipitation; also called Murine Latent GDF8; copies: 2 + 2
Nature of the assay: ForteBio BLI.
For the molecule B8, binding was put at a Kd of 7.8 nM.

B3 registered a Kd of 4.2 nM.

In turn, B9 displayed a Kd of 1.9 nM.

Turning to B4, the affinity, expressed as Kd, was 28.4 nM.

Consider B12, for which the dissociation constant Kd came out at 18.8 nM.

B11 had a Kd of 11 nM.

Regarding B5, binding was put at a Kd of 1.8 nM.

Another assay addresses proGDF11 (UniProt O95390 25-407, limits assumed). The experiment in a line: ForteBio Octet QKe BLI, antibody 50 µg/mL; flagged * non-specific binding, fitted to a poor response.
Method: Binding affinities of antibody candidates were determined using the FortéBio Octet QKe dip and read label free assay system utilizing bio-layer interferometry. Antigens were immobilized to biosensors (streptavidin-coated biosensors for proGDF8, proGDF11 and proActivin; direct amine coupling for all others) in each experiment and the antibodies/constructs were presented in solution at high concentration (50 μg/mL) to measure binding interactions.
In turn, B1 gave a dissociation constant (Kd) of 125 nM.

For the molecule B2, the equilibrium dissociation constant (Kd) is 60.7 nM.
